doi:10.1101/2024.11.15.623645 (bioRxiv, 2024)

B1: 2G12 soluble IgG mAb (antibody, V domains shown)
VH: EVQLVESGGGLVKAGGSLILSCGVSNFRISAHTMNWVRRVPGGGLEWVASISTSSTYRDYADAVKGRFTVSRDDLEDFVYLQMHKMRVEDTAIYYCARKGSDRLSDNDPFDAWGPGTVVTVSP
VL: DVVMTQSPSTLSASVGDTITITCRASQSIETWLAWYQQKPGKAPKLLIYKASTLKTGVPSRFSGSGSGTEFTLTISGLQFDDFATYHCQHYAGYSATFGQGTRVEIK

Columns and labels:
Experiment in all cases: SPR
[1] = biological target: 2G12 IgG BCR complex (membrane IgG with Igα/Igβ) (human | human (endogenous in Ramos)) (UniProt P11912)
[2] = biological target: 2G12 IgM BCR complex (membrane IgM with Igα/Igβ) (human | human (endogenous in Ramos)) (UniProt P11912)
[3] = biological target: HIV-1 Env gp140 trimer CH505TF v4.1 (non-biotinylated) (HIV-1 clade C, CH505 transmitted/founder, UniProt M4M3Q1, stabilised)

Molecule	kon [1] [M⁻¹ s⁻¹]	kon [2] [M⁻¹ s⁻¹]	binding result [3]
HIV-1 Env gp140 trimer BG505 GT1.2 (non-biotinylated)	> 100000	> 100000	
HIV-1 Env gp140 trimer CAP256 (non-biotinylated)	> 100000	> 100000	
HIV-1 Env gp140 trimer CH505TF v4.1 (non-biotinylated)	> 100000	> 100000	
HIV-1 Env gp140 trimer CH848 (non-biotinylated)	> 100000	> 100000	
HIV-1 Env gp140 trimer JRFL (non-biotinylated)	> 100000	> 100000	
B1			binds
